In article PMC13429012 (Structure (London, England : 1993), 2016):

What was measured:
Rvb2(E166K) = Rvb2(E166K) (Saccharomyces cerevisiae, UniProt Q12464 1-471, E166K); experiment: SEC
Rvb2 = Rvb2 (Saccharomyces cerevisiae, UniProt Q12464 1-471); experiment: SEC
Sequence of Rvb2 (Q12464 whole entry): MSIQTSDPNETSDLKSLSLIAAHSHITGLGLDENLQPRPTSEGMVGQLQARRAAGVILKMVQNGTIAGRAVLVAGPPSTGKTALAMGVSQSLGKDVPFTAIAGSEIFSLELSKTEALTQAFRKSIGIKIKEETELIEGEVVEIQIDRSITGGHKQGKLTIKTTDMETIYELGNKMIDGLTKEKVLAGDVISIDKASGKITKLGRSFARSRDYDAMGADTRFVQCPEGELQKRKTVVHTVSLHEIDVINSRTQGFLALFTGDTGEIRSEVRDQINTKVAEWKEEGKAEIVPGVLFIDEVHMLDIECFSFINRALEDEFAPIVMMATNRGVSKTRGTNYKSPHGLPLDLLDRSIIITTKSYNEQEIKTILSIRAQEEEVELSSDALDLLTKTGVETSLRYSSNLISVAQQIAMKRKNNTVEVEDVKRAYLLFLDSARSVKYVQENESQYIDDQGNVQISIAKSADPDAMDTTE

Sequence of Rvb2(E166K) (Q12464 whole entry E166K): as the sequence (Q12464 whole entry) above, with E166K counted along it

Row | Binder | binding result (Rvb2(E166K)) | binding result (Rvb2)
1 | Rvb1 (natural protein, Saccharomyces cerevisiae, UniProt Q03940 1-463, looked up) MVAISEVKENPGVNSSNSGAVTRTAAHTHIKGLGLDESGVAKRVEGGFVGQIEAREACGVIVDLIKAKKMSGRAILLAGGPSTGKTALALAISQELGPKVPFCPLVGSELYSVEVKKTETLMENFRRAIGLRIKETKEVYEGEVTELTPEDAENPLGGYGKTISHVIVGLKSAKGTKTLRLDPTIYESIQREKVSIGDVIYIEANTGAVKRVGRSDAYATEFDLETEEYVPLPKGEVHKKKEIVQDVTLHDLDVANARPQGGQDVISMMGQLLKPKKTEITEKLRQEVNKVVAKYIDQGVAELIPGVLFIDEVNMLDIEIFTYLNKALESNIAPVVVLASNRGMTTVRGTEDVISPHGVPPDLIDRLLIVRTLPYDKDEIRTIIERRATVERLQVESSALDLLATMGTETSLRYALQLLAPCGILAQTSNRKEIVVNDVNEAKLLFLDAKRSTKILETSANYL | binds | 
2 | Rvb1(R180E) (natural protein, Saccharomyces cerevisiae, UniProt Q03940 1-463, looked up) MVAISEVKENPGVNSSNSGAVTRTAAHTHIKGLGLDESGVAKRVEGGFVGQIEAREACGVIVDLIKAKKMSGRAILLAGGPSTGKTALALAISQELGPKVPFCPLVGSELYSVEVKKTETLMENFRRAIGLRIKETKEVYEGEVTELTPEDAENPLGGYGKTISHVIVGLKSAKGTKTLELDPTIYESIQREKVSIGDVIYIEANTGAVKRVGRSDAYATEFDLETEEYVPLPKGEVHKKKEIVQDVTLHDLDVANARPQGGQDVISMMGQLLKPKKTEITEKLRQEVNKVVAKYIDQGVAELIPGVLFIDEVNMLDIEIFTYLNKALESNIAPVVVLASNRGMTTVRGTEDVISPHGVPPDLIDRLLIVRTLPYDKDEIRTIIERRATVERLQVESSALDLLATMGTETSLRYALQLLAPCGILAQTSNRKEIVVNDVNEAKLLFLDAKRSTKILETSANYL |  | binds

Second part, the binder after the results:

Row | binding result (Rvb2(E166K)) | binding result (Rvb2) | Binder
3 |  | binds | Rvb1(K161E) (natural protein, Saccharomyces cerevisiae, UniProt Q03940 1-463, looked up) MVAISEVKENPGVNSSNSGAVTRTAAHTHIKGLGLDESGVAKRVEGGFVGQIEAREACGVIVDLIKAKKMSGRAILLAGGPSTGKTALALAISQELGPKVPFCPLVGSELYSVEVKKTETLMENFRRAIGLRIKETKEVYEGEVTELTPEDAENPLGGYGETISHVIVGLKSAKGTKTLRLDPTIYESIQREKVSIGDVIYIEANTGAVKRVGRSDAYATEFDLETEEYVPLPKGEVHKKKEIVQDVTLHDLDVANARPQGGQDVISMMGQLLKPKKTEITEKLRQEVNKVVAKYIDQGVAELIPGVLFIDEVNMLDIEIFTYLNKALESNIAPVVVLASNRGMTTVRGTEDVISPHGVPPDLIDRLLIVRTLPYDKDEIRTIIERRATVERLQVESSALDLLATMGTETSLRYALQLLAPCGILAQTSNRKEIVVNDVNEAKLLFLDAKRSTKILETSANYL
4 |  | binds | Rvb1(E150K) (natural protein, Saccharomyces cerevisiae, UniProt Q03940 1-463, looked up) MVAISEVKENPGVNSSNSGAVTRTAAHTHIKGLGLDESGVAKRVEGGFVGQIEAREACGVIVDLIKAKKMSGRAILLAGGPSTGKTALALAISQELGPKVPFCPLVGSELYSVEVKKTETLMENFRRAIGLRIKETKEVYEGEVTELTPKDAENPLGGYGKTISHVIVGLKSAKGTKTLRLDPTIYESIQREKVSIGDVIYIEANTGAVKRVGRSDAYATEFDLETEEYVPLPKGEVHKKKEIVQDVTLHDLDVANARPQGGQDVISMMGQLLKPKKTEITEKLRQEVNKVVAKYIDQGVAELIPGVLFIDEVNMLDIEIFTYLNKALESNIAPVVVLASNRGMTTVRGTEDVISPHGVPPDLIDRLLIVRTLPYDKDEIRTIIERRATVERLQVESSALDLLATMGTETSLRYALQLLAPCGILAQTSNRKEIVVNDVNEAKLLFLDAKRSTKILETSANYL
5 |  | binds | Rvb1(E146R) (natural protein, Saccharomyces cerevisiae, UniProt Q03940 1-463, looked up) MVAISEVKENPGVNSSNSGAVTRTAAHTHIKGLGLDESGVAKRVEGGFVGQIEAREACGVIVDLIKAKKMSGRAILLAGGPSTGKTALALAISQELGPKVPFCPLVGSELYSVEVKKTETLMENFRRAIGLRIKETKEVYEGEVTRLTPEDAENPLGGYGKTISHVIVGLKSAKGTKTLRLDPTIYESIQREKVSIGDVIYIEANTGAVKRVGRSDAYATEFDLETEEYVPLPKGEVHKKKEIVQDVTLHDLDVANARPQGGQDVISMMGQLLKPKKTEITEKLRQEVNKVVAKYIDQGVAELIPGVLFIDEVNMLDIEIFTYLNKALESNIAPVVVLASNRGMTTVRGTEDVISPHGVPPDLIDRLLIVRTLPYDKDEIRTIIERRATVERLQVESSALDLLATMGTETSLRYALQLLAPCGILAQTSNRKEIVVNDVNEAKLLFLDAKRSTKILETSANYL
